Consider 19 sequences from the DeepSol protein solubility set.

A short description of the data set: soluble on expression in E. coli; label from the status in PepcDB or PDB records.
For the sequence “MSLSFQMKYDIRLRFEVEGIVEKTDVIGAIFGQTENLFGDEFDLRELQDKGRLGRIIVEVKTKGGKSEGEIIIPSNLDRIETALIAAMVESVDKVGPYNSKFELIEIEDIRAEKLKKIIERAKGILSSWSKEKSLDIKEVINEISSAVKVGEITEYGPERLPAGPDVDKDPNLIIVEGRADVINLLRYGYKNVIAVEGATSRIPETLINLSKMKKTVIAFLDGDHGGDLILKELLSNNVKIDFVARAPIGREVEELTGKEIAKALSNMMPLTQYLKKVQEAEQAIAKNVIAKEEKPIQSETTQQVVQITLPQNILEEIKKLPGTLEGVLYDNNWNLIEKVQVRDIIPKLEAYEDNKVAYIIFDGVITQRLLDLASQKNIKMIIGARIGGINKRPQNVDILTFTDIISSEGHHHHHH”, the “soluble on expression in E. coli” value is reported as “soluble”. As for “MPPSLRKAVAAAIGGGAIAIASVLITGPSGNDGLEGVSYIPYKDIVGVWTVCHGHTGKDIMLGKTYTKAECKALLNKDLATVARQINPYIKVDIPETMRGALYSFVYNVGAGNFRTSTLLRKINQGDIKGACDQLRRWTYAGGKQWKGLMTRREIEREICLWGQQ”, the “soluble on expression in E. coli” value is recorded as “soluble”. As for “MYVIDTSAIISRNLNLLEGDLMFPSSVIGEIKKGKLRYMIDVLLPMIRVASPDHEYLKIVEETAAKTGDLMNLSQTDKDVLALALQYDATIVTDDYSIQNVASYLNLGFLNA”, the “soluble on expression in E. coli” value is “soluble”. The value for “AHHHHHHGSIIRGDEPEQKALLRKLYRAGNYFMMGDEAIAYGAIFAGCRFYAGYPITPSSEIAETMARELPKVGGYYLQMEDEIASIAAIIGASWTGLKAMTATSGPGFSLMQENIGYAVMTETPVVIVDVQRSGPSTGQATKGAQGDFFQARWGTHGDHPIIAVSPISVEDAFWETIRAFNIAEQLRTPVIVLFDGILGHTREQIRIPDPDEVEISYRKLPRNEEEAKLPFGDPHGDGVPPMPIFGKGYFTHVTGSTHKENGLRDVYTPEVHDRLVRRLHKKIEKNRHIYEKYNEYFTDDAEILVVSWGVSARPSLGAVKKAREEGIKAGLFVPKTVHPFPGEKMRELGKKVRAILVPEMNLGQLILEVQRFVNDDVILKGVNKIGGVPITVEEILREIRGVA” was “not soluble”; that for “GMENIPFLRASTVPVIEYLDELKEIDASHIYTNYGPINQRFEQTIMSGFFQNRGAVTTVANATLGLMAAIQLKKRKKGKYALMPSFTFPATPLAAIWCGLEPYFIDISIDDWYMDKTVLWDKIEELKEEVAIVVPYATFGSWMNLEEYEELEKKGVPVVVDAAPGFGLMNGGMHYGQDFSGMIIYSFHATKPFGIGEGGLIYSKNEEDIQRIKRMGNFGFDTNRECTMMGFNCKMSEYAAAIGIATMKKWDDKLKERTRISEWYKQLLQSNGLMKKGWQLQKTEAVIQQFMPILCPEEVRNKQVIEDLKKQKIEARLYFSPSCHQQVLFRNYKSTDLTRTNKIAKRIVSLPLWEGMTKEIVEQIVICLGQKVVSADE” was “soluble”; that for “MPAKERFFGFHPCKLVEQVEDCVRDLLEDALDGLETSLFRECALAFDALQENAVTSEHEHAKRLLLQQGLMRLRDALFTAFYDQMDRLQVYLLRNVFHIPPGLRIPNVNTSEDLVENWEQALGIDPSSVQIDANAEDEHAVDQELVALRQSLRVARQRLQRLCRERSVLEGAFHRLEGALQSRLASTLIPTEPEDPSGDCDALAKQVVTIARAVSELEAVVRSCRDQFLGDRSSAASGGAPPSGTVPAAAGGSDVGAQGALVRPPLELERIFDAHTKATRVDSLDAVDALRRALHRSC” was “not soluble”.

For the sequence “MRVIVTEYQPAWVEQFEEEAQALKQILKENCLKVEHIGSTSVPNLAAKPIIDFLVIVEEIEKVDLLQWEFERIGYEYMGEFGLSGRRYLRKGPIKRTHHVHIYQFDNTQEILRHLAFRNYLRENPAIATTYGTLKKQLAQAHPDSIDKYMDGKDAFIKKIEKEALKKYWEK”, the “soluble on expression in E. coli” value was “not soluble”.

Regarding “SSVIDKPQVNESAFHRAEPEERESQPETTPQYSPQSVSTTVPERVYQAIDKTPTYPGRTDYEIKPRDRAPSDSSVREARIADSFKRTDWIESKLAPKPNVGKERHAEPAPSKREVHAYHELLKTPDFESQQAEQPTSIESVREVSLPQVTALGKALVVVDEQFVLMSSDSGVALVSLPRSEFYRTKGQLTPSEGALKAQPLLVPLSMKLDTDLVRLAQDYQQDFAQLGIQLKARNDKALMVMGVPAPLRQQNLQNLVPDLLSYAQTWMKGEKASTQMLPALIDWLAVQVTTVKSHYTLSEAIQIIAELEQLRHGQLPLDDKTFVSAVDFSATIAKLKP”, the “soluble on expression in E. coli” value is on record as “not soluble”.

Turning to “MHNVVITAAVRSPIGTFGGALKNVTPVELAVPVLQEAVKRGGVEPHEVDEVILGHCIQRTDEANTARTAALAAGFPDTVTGYTIQRQCSSGMQAIMSAAMQIQLGVSEVVVAGGVEAMSSSPYALKQHRWGQRLQHGEIRDTVWEVLEDPIHHIMMGETAENLVEQYEITREEQDEVALRSHTLALKAIESGYFDDQIVPITIKERRKEVVFSKDEHPRADITAEKLAGLKPAFRKDGSVTAGNASGLNDGSAVLVLMSEEKAKEKGLQPLARIVGYSVAGVDPKIMGIGPAPAIRKGLEKVDWSLEDADLLEINEAFAAQYLAVEKELGLDREKVNVNGSGVGLGHPIGCTGARITVSLIHELKRRGLEKGIASLCVGGGIGVALFIEAL”, the “soluble on expression in E. coli” value is listed as “not soluble”. With “MDGELRAQGLRKRYGPKEVVRGVDLALRRGEIVALFGPNGAGKTTTFYMVVGFIRPTGGRIYLKGQEITALPMYKRARLGLGYLPQEPSAFRRMTALENLLAVLEFQPLSKKERLEKAKALLEELSIYHLRDRMAYSLSGGERRRLEIARALATDPDFLLLDEPFTGVDPKNVREIQKVIAELRERRGVGVFITDHAVRETLAITDRVYLMYDGQVLFHGDPETFAKDQGVRRHYLGEDYEL”, the “soluble on expression in E. coli” value is given as “soluble”. The value for “MMKTLSPLKASLFAILASSTVLVTTVSAEPSQECDHPRSEFHKRGDRMGHDGMHKMFEGLELTDTQKADIKKLFAEQRAARSDDKPTKEERLARRAEMHALITAATFDETQAKALIGAQQEKRQAQAIERMKMQNQIYNLLTPEQQAKFKARFEAHTGKEPRSLEHHHHHH” was “not soluble”; that for “MGHHHHHHSHMPPHPAIFFYCLLRQGLTMLPRLVLNFWAQAVHLPRPPRVLGLQAGGTAPGQKKLFLTSHFPPASPLPLCFSLQQNFKKHSPRSPPGILGSLYPGFCSPIATSPFAKGTRGLRVVGSSGRLSASS” was “not soluble”. For “MGSDKIHHHHHHMMSLSSAETIRASLHNALGKIESFKSCALLDYPDHPNIGDHLIWLGGVIYLTNVMKTQIKYTCSLHNFSPKTLEDNIGKSPIVFHGGGNLGDLWTEQQKFREGIISKYRDRPIVILPQSLYFRHEVNLIKTANIFNSHPNLTIFLRDERSYKIAREAFDKCQVFKAPDMAFQMTDLQDIFHIQNNKSSILYLSRKDREINQKQSENIFDLPNLVVEDWIAYEWKFGHPTKKLAKYVSTLYREVWQRGLATPIEWNSRQKWQNSYPYEVEFNHVYQPSIHQLSWSLMHSGVYQLKQHRLVITNRLHGHIICVLFNIPHVFLPNSYYKNEAFYEEWTKEIPDCRFIKDTSEVKIAVEELLASSTGKAIN”, the “soluble on expression in E. coli” value is “not soluble”. For “MNKLYIGNLSPAVTADDLRQLFGDRKLPLAGQVLLKSGYAFVDYPDQNWAIRAIETLSGKVELHGKIMEVDYSVSKKLRSRKIQIRNIPPHLQWEVLDGLLAQYGTVENVEQVNTDTETAVVNVTYATREEAKIAMEKLSGHQFENYSFKISYIPDEEVSSPSPPQRAQRGDHSSREQGHAPGGTSQARQIDFPLRILVPTQFVGAIIGKEGLTIKNITKQTQSRVDIHRKENSGAAEKPVTIHATPEGTSEACRMILEIMQKEADETKLAEEIPLKILAHNGLVGRLIGKEGRNLKKIEHETGTKITISSLQDLSIYNPERTITVKGTVEACASAEIEIMKKLREAFENDMLAVNQQANLIPGLNLSALGIFSTGLSVLSPPAGPRGAPPAAPYHPFTTHSGYFSSLYPHHQFGPFPHHHSYPEQEIVNLFIPTQAVGAIIGKKGAHIKQLARFAGASIKIAPAEGPDVSERMVIITGPPEAQFKAQGRIFGKLKEENFFNPKEEVKLEAHIRVPSSTAGRVIGKGGKTVNELQNLTSAEVIVPRDQTPDENEEVIVRIIGHFFASQTAQRKIREIVQQVKQQEQKYPQGVASQRSK”, the “soluble on expression in E. coli” value is recorded as “soluble”.

Turning to “MGSDKIHHHHHHMNKKLLNKVMKKLASSNVVISPTVKSSSTSLSMQKKPETEQVQQKLEQYLLSRYHFRFNLLTEQTECCKKDADTPIYKVISQRTLNSLCLEARARHINCWDKDVSRFVNSEQMPDYHPLLSYMNTLPEWDGKDRVTPLAQRISTKDFWVNSFHRWMLGVTAQWSGRMDRCANAVAPMLVSSEQGRCKSTFCELLMPDSLKDYYTDSFELTGQAGCEQKLAFFGLINLDEYDRLSPQKLPLLKNLMQMKKLDFRKSHRSSYSHLPRMASFIGTSNRKALLTDPSGSRRYFFAEVKEKIDCSPLEHKQLFAQLKAELDEGKRYWFSAAEESELKLRNQAYYALPTEAEMILHCFRLPEKGEDFKLYSAVCLFNILLKRYPAAMRGITINKMGRIMNSLGAERMHTTTGNMYKLVALAG”, the “soluble on expression in E. coli” value is “not soluble”.

In the case of “MSLIEEEVLKIIKPTEEDKKGIEKVLEIIRERLNKLDFEVEGSFRKGTWLRQDTDIDVFVFYPKDVGKEYLERNALNDIINRIKDLDYTLAYAEHPYVIVNINNVEVDIVPALRVESGDKAITAVDRTPFHTKYVTSHLDERGKDEVRLLKRFMKGIGVYGAELKVQGFSGYATELLIIYYGNFRKVLEEASKWKHPIKIELTKPMKIFSEPLIIPDPVDPKRNVTAAVSLKNIATFSIAAKYYLKNPSIEFFFPSKKVEEKVKGDVLILRLNLDEKSSEDIVWGQIKRSVNKIERALKQYGFRVIDVQAWGDTNNITIAVQLESKNIGQYYLNIGPQYYSGTIEDFIQKNDNIWVGEDGRLYSIKERKEYDAETIAKKNIVLKVKYNIESYWLQNTEDQQIMKFLRKTPTWLKEGHHHHHH”, the “soluble on expression in E. coli” value was “not soluble”. Consider “MELRVGNKYRLGRKIGSGSFGDIYLGANIASGEEVAIKLECVKTKHPQLHIESKFYKMMQGGVGIPSIKWCGAEGDYNVMVMELLGPSLEDLFNFCSRKFSLKTVLLLADQMISRIEYIHSKNFIHRDVKPDNFLMGLGKKGNLVYIIDFGLAKKYRDARTHQHIPYRENKNLTGTARYASINTHLGIEQSRRDDLESLGYVLMYFNLGSLPWQGLKAATKRQKYERISEKKMSTPIEVLCKGYPSEFSTYLNFCRSLRFDDKPDYSYLRQLFRNLFHRQGFSYDYVFDWNMLKFGAARNPEDVDRERREHEREERMGQLRGSATRALPPGPPTGATANRLRSAAEPVASTPASRIQPAGNTSPRAISRVDRERKVSMRLHRGAPANVSSSDLTGRQEVSRIPASQTSVPFDHLGK”, for which the “soluble on expression in E. coli” value is recorded as “not soluble”. For “MGSDKIHHHHHHMIKDTVFFAPGVSGGSNASSLSSRHRRAAIILHEIYGINAHIQRAGHEWMTRGFDIYIPALFPHHTPFRYEQQEEAYRHFSANVGFDPAVVTTLLHDLRTQYETLIVVGYSVGATLAWLSAASGLCDGVVCYYGSRIRQYLHLAPLCPTLVIVARYEPAFDPLAMRQALEKRPRVQCKMYDARHGFCDADSATFDAALSHQVMDDVTAFIRDITCANTSPDFQL” the value was “not soluble”; for “MSLYKIDFSKGLVPAILQDNQTKQVLMLGYMNQEAFDKTIEDGVVCFYSRSKQRLWTKGETSGHTQLVKDIHVDCDNDTILIDVIPNGPTCHTGSQSCFNTEVPFSVQTLAQTVQDSAQSNNEKSYTKYLLTEGIEKITKKYGEEAFEVVIEAIKGDKKAFVSEVADELYHLFVLMHALGVDFSEIEAELARRHHKRNNFKGERQNIEQWEGHHHHHH”, “soluble”.
